We go through one substance from paper PMC8207647.

Among the test systems are O=Cc1ccc(C=O)o1; COc1ccc(CO)cc1OC; O=C(O)c1ccc(CO)o1; O=Cc1ccc(CO)o1.
Holding throughout (assay): purified protein
Common to all, as to conditions: O2 co-substrate, pH 7.5 sodium phosphate 50 mM, 35 °C

Regarding “FoxAAO (Fusarium oxysporum f. sp. lycopersici 4287)”, the Km – broadly, the concentration of substrate that gives half-maximal velocity – is listed as 3.7 ± 1.0 mM with O=Cc1ccc(C=O)o1, 3.0 ± 0.24 mM in the series with COc1ccc(CO)cc1OC, 3.1 ± 0.31 mM with O=C(O)c1ccc(CO)o1 and 17 ± 4.9 mM in the series with O=Cc1ccc(CO)o1. Moreover, the results for the kcat with O=Cc1ccc(C=O)o1, in the series on COc1ccc(CO)cc1OC and in the series on O=C(O)c1ccc(CO)o1 were 1.4 ± 0.13 s⁻¹, 25 ± 1.2 s⁻¹ and 5.2 ± 0.14 s⁻¹, respectively. The values for the kcat/Km in the series on O=Cc1ccc(C=O)o1, in the series with COc1ccc(CO)cc1OC and with O=C(O)c1ccc(CO)o1 were 380 M⁻¹ s⁻¹, 8300 M⁻¹ s⁻¹ and 1700 M⁻¹ s⁻¹, respectively.
